Laboratory results: US20220002344A1 (CENTRE NATIONAL DE LA RECHERCHE SCIENTIFIQUE, published 2022)
Square brackets hold non-standard residues; d marks the D form. Ends that are not written are not given here. * marks the point of attachment. FITC = O=C1OC2(c3ccc(O)cc3Oc3cc(O)ccc32)c2ccc(NC(=S)*)cc21; Cha = N[C@@H](CC1CCCCC1)C(=O)O

B1: P7 (Ac-QChaDLF-OH) (peptide)
peptide: Ac-Q[Cha]DLF-OH
SMILES: CC(=O)N[C@@H](CCC(N)=O)C(=O)N[C@@H](CC1CCCCC1)C(=O)N[C@@H](CC(=O)O)C(=O)N[C@@H](CC(C)C)C(=O)N[C@@H](Cc1ccccc1)C(=O)O
notes: also called CA2 68; AcQXDLF
B2: P116 (Py-P7), …haDLF-OH (peptide)
peptide: VDKGSYLPRPTPPRPIYNRNGPRQ[Cha]DLF-OH
modifications: N-terminus assumed
SMILES: CC[C@H](C)[C@H](NC(=O)[C@@H]1CCCN1C(=O)[C@H](CCCNC(=N)N)NC(=O)[C@@H]1CCCN1C(=O)[C@@H]1CCCN1C(=O)[C@@H](NC(=O)[C@@H]1CCCN1C(=O)[C@H](CCCNC(=N)N)NC(=O)[C@@H]1CCCN1C(=O)[C@H](CC(C)C)NC(=O)[C@H](Cc1ccc(O)cc1)NC(=O)[C@H](CO)NC(=O)CNC(=O)[C@H](CCCCN)NC(=O)[C@H](CC(=O)O)NC(=O)[C@@H](N)C(C)C)[C@@H](C)O)C(=O)N[C@@H](Cc1ccc(O)cc1)C(=O)N[C@@H](CC(N)=O)C(=O)N[C@@H](CCCNC(=N)N)C(=O)N[C@@H](CC(N)=O)C(=O)NCC(=O)N1CCC[C@H]1C(=O)N[C@@H](CCCNC(=N)N)C(=O)N[C@@H](CCC(N)=O)C(=O)N[C@@H](CC1CCCCC1)C(=O)N[C@@H](CC(=O)O)C(=O)N[C@@H](CC(C)C)C(=O)N[C@@H](Cc1ccccc1)C(=O)O
notes: Fusion of pyrrhocoricin, GPR linker and P7
B3: P30 (Onc112-P7), VDKPPYLPRPRPPRrIYNrNGPRQChaDLF-OH (peptide)
peptide: VDKPPYLPRPRPPR[dR]IYN[dR]NGPRQ[Cha]DLF-OH
notes: Fusion of Onc112 and P7; the printed Mw 3472.08 agrees with that N; also called CA3-30; Onc-P7
B4: P120 (Onc112-P7Scr), VDKPPYLPRPRPPRrIYNrNGPRChaFQLD-OH (peptide)
peptide: VDKPPYLPRPRPPR[dR]IYN[dR]NGPR[Cha]FQLD-OH
notes: Control fusion peptide with scrambled P7; also called Onc112-Scr
B5: Py (Pyrrhocoricin), VDKGSYLPRPTPPRPIYNRN-NH2 (peptide)
peptide: VDKGSYLPRPTPPRPIYNRN-NH2
notes: Bought from Novopro; also called unglycosylated pyrrhocoricin
B6: CM1-76 (P7-Onc112), AcQChaDLF-GPR-Onc112-NH2 (peptide)
peptide: Ac-Q[Cha]DLFGPRVDKPPYLPRPRPPR[dR]IYN[dR]-NH2
SMILES: CC[C@H](C)[C@H](NC(=O)[C@@H](CCCNC(=N)N)NC(=O)[C@H](CCCNC(=N)N)NC(=O)[C@@H]1CCCN1C(=O)[C@@H]1CCCN1C(=O)[C@H](CCCNC(=N)N)NC(=O)[C@@H]1CCCN1C(=O)[C@H](CCCNC(=N)N)NC(=O)[C@@H]1CCCN1C(=O)[C@H](CC(C)C)NC(=O)[C@H](Cc1ccc(O)cc1)NC(=O)[C@@H]1CCCN1C(=O)[C@@H]1CCCN1C(=O)[C@H](CCCCN)NC(=O)[C@H](CC(=O)O)NC(=O)[C@@H](NC(=O)[C@H](CCCNC(=N)N)NC(=O)[C@@H]1CCCN1C(=O)CNC(=O)[C@H](Cc1ccccc1)NC(=O)[C@H](CC(C)C)NC(=O)[C@H](CC(=O)O)NC(=O)[C@H](CC1CCCCC1)NC(=O)[C@H](CCC(N)=O)NC(C)=O)C(C)C)C(=O)N[C@@H](Cc1ccc(O)cc1)C(=O)N[C@@H](CC(N)=O)C(=O)N[C@H](CCCNC(=N)N)C(N)=O

What was measured:
[1] = molecular target: T1, E. coli sliding clamp (DnaN protein, β subunit of DNA polymerase III) (E. coli, UniProt P0A988 1-366); assay: ITC, 30 °C, peptide titrated into E. coli SC
T1 construct: Recombinant DnaN for ITC (a tag from pET15b is implied by the Ni-NTA step but not described); also called ^EcSC; SC

[2] = molecular target: T1, E. coli sliding clamp (DnaN protein, β …); assay: ITC, 25 °C, E. coli SC (beta ring)
[3] = molecular target: T1, E. coli sliding clamp (DnaN protein, β …); assay: ITC, 30 °C, E. coli SC
[4] = molecular target: T2, Human PCNA (Proliferating Cell Nuclear Antigen) (Human, UniProt P12004 1-261); assay: ITC, 30 °C
T2 construct: Source and limits of the construct are not described

[5] = molecular target: T3, E. coli 70S ribosome particle (E. coli); assay: ITC, 30 °C, against the same peptide on E. coli SC
T3 construct: also called ^Ec70S

[6] = molecular target: T3, E. coli 70S ribosome particle; assay: ITC, 30 °C, peptide titrated into E. coli 70S ribosome
[7] = molecular target: T3, E. coli 70S ribosome particle; assay: ITC, 30 °C, peptide titrated into E. coli 70S ribosome; values not well defined (footnote *)
[8] = molecular target: T1, E. coli sliding clamp (DnaN protein, β …); assay: ITC, 30 °C
[9] = molecular target: T3, E. coli 70S ribosome particle; assay: ITC, 30 °C, against Py on the 70S ribosome
[10] = molecular target: T3, E. coli 70S ribosome particle; assay: ITC, E. coli ribosome (70S)
[11] = molecular target: T3, E. coli 70S ribosome particle; assay: ITC, 30 °C as the table's head says, E. coli ribosome

T1 sequence (P0A988 whole entry): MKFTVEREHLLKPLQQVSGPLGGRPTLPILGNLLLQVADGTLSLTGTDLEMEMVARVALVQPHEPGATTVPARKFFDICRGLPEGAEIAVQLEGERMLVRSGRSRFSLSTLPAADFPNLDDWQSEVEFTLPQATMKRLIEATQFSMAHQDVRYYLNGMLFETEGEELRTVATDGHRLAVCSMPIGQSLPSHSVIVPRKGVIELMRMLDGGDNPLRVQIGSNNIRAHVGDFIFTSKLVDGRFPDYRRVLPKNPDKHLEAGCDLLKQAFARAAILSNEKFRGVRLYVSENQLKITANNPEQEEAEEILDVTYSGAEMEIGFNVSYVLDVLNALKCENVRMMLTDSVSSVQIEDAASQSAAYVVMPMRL
T2 sequence (P12004 whole entry): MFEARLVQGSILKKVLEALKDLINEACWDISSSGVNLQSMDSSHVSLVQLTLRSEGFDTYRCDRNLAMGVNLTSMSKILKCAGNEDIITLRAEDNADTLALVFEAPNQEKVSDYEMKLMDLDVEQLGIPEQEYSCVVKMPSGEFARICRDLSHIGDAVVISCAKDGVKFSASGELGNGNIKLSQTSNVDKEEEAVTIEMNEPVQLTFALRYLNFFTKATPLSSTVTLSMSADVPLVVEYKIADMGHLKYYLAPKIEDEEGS

| Binder | -TΔS [1] [kcal/mol] | Kd [1] [nM] | ΔG [1] [kcal/mol] | ΔH [1] [kcal/mol] | Kd [2] [nM] | n [2] | ΔG [2] [kcal/mol] | ΔH [2] [kcal/mol] | -TΔS [6] [kcal/mol] | Kd [6] [nM] | ΔG [6] [kcal/mol] | ΔH [6] [kcal/mol] | -TΔS [7] [kcal/mol] | ΔG [7] [kcal/mol] | ΔH [7] [kcal/mol] | binding result [8] | other results |
| --- | --- | --- | --- | --- | --- | --- | --- | --- | --- | --- | --- | --- | --- | --- | --- | --- | --- |
| B1 | 4.71 | 332 | -9 | -13.7 | 170 | 0.9 | -9.2 | -15.4 | – | – | – | – | – | – | – | – | Kd [3]: 408 nM; n [3]: 1; ΔH [3]: -12.1 kcal/mol; binding result [4]: no binding |
| B2 | 4.3 | 119 | -9.61 | -13.9 | – | – | – | – | 12 | 37 | -10.3 | -22.3 | – | – | – | – | fold higher affinity for the ribosome than for SC [5]: 3 fold |
| {FITC}-KVDKGSYLPRPTPPRPIYNRNGPRQ[Cha]DLF-OH (also called FITC-K-Py-P7; CA2-150) [P150 (FITC-Py-P7), FITC-…haDLF-OH] | 8.21 | 390 | -8.99 | -17.2 | – | – | – | – | – | – | – | – | 6.7 | -6.27 | -13 | – | – |
| VDKPPYLPRPRPPR[dR]IYN[dR]-NH2 (also called CA3 28; CA3-28) [P28 (Onc112), VDKPPYLPRPRPPRrIYNr-NH2] | – | – | – | – | – | – | – | – | 14 | 84 | -9.82 | -23.9 | – | – | – | no binding | fold lower affinity than Py [9]: 5 fold; Kd [10]: 241 nM; n [10]: 1; ΔG [10]: -9.2 kcal/mol; ΔH [10]: -16.2 kcal/mol; Kd [11]: 241 nM; ΔG [11]: -9.2 kcal/mol; ΔH [11]: -16.2 kcal/mol |
| B3 | 4.2 | 205 | -9.28 | -13.5 | 180 | 0.9 | -9.2 | -14.6 | 15.7 | 70.4 | -9.92 | -25.6 | – | – | – | – | fold higher affinity for the ribosome than for SC [5]: 3 fold |
| B4 | – | – | – | – | – | – | – | – | 3.12 | 101 | -9.85 | -13 | – | – | – | no binding | – |
| B5 | – | – | – | – | – | – | – | – | 8.23 | 15.5 | -10.9 | -19.2 | – | – | – | no binding | – |
| {FITC}-KVDKGSYLPRPTPPRPIYNRN-NH2 (ends and bridges not checked, also called FITC-K-Py; FITC-K-Pyr) [P122 (FITC-Py), FITC-KVDKGSYLPRPTPPRPIYNRN-NH2] | – | – | – | – | – | – | – | – | – | – | – | – | 13.3 | -6.91 | -20.1 | no binding | – |
| {FITC}-KVDKGSYLPRPTPPRPIYNRNGPR[Cha]FQLD-OH (also called FITC-K-Py-P7Scr; CA4-72) [P72 (FITC-Py-P7Scr), FITC-…haFQLD-OH] | – | – | – | – | – | – | – | – | – | – | – | – | 2.94 | -5.98 | -8.92 | no binding | – |
| B6 | – | – | – | – | 258 | 1 | -9 | -10.7 | – | – | – | – | – | – | – | – | – |
